Reference: the supplement of paper PMC7877785
± gives the uncertainty stated by the source.

Assay: self-splicing fitness, log relative to wild type (ln ratio); higher = more splicing; Tetrahymena group I intron in knt gene, E. coli kanamycin selection, DiMSum; sequences stand for … in CUCUCU…GGAGGGAAAAGUUAUCAGGCAUGCACCUGGUAGCUAGUCUUUAAACCAAUAGAUUGCAUCGGUUUAAAAGGCAAGACCGUCAAAUUGCGGGAAAGGGGUCAACAGCCGUUCAGUACCAAGUCUCAGGGGAAACUUUGAGAUGGCCUUGCAAAGGGUAUGGUAAUAAGCUGACGGACAUGGUCCUAACCACGCAGCCAAGUCCUAAGUCAACAGAUCUUCUGUUGAUAUGGAUGCAGUUCACAGACUAAAUGUCGGUCGGGGAAGAUGUAUUCUUCUCAUAAGAUAUAGUCGGACCUCUCCUUAAUGGGAGCUAGCGGAUGAAGUGAUGCAACACUGGAGCCGCUGGGAACUAAUUUGUAUGCGAAAGUAUAUUGAUUAGUUUUGGAGUACUCGUGGUCG
In short: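 Fitness was computed with DiMSum as the error-weighted combination of replicate fold changes, kanamycin versus none, each normalised to wild type. The library randomised all eight intron nucleotides of the P1ex region, with the intron placed in the knt kanamycin-resistance gene on pET-22b(+) in E. coli BL21(DE3). Six replicate transformations were grown overnight at 37°C or 30°C on LB agar with or without 25 μg/mL kanamycin, plus 100 μg/mL carbenicillin, 50 μM IPTG and 0.2% rhamnose. Pooled colonies were amplicon-sequenced on an Illumina HiSeq 2500.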

| Sequence | self-splicing fitness (ln) (30 °C) | self-splicing fitness (ln) (37 °C) |
| --- | --- | --- |
| CGCAAGCAAUAUUACGUGCG | -2.81 ± 0.26 | -2.23 ± 0.2 |
| CGCAAGCAAUAUUACGUGGC | -3.9 ± 0.2 | -1.93 ± 0.17 |
| CGCAAGCAAUAUUACGUGGG | -4.69 ± 0.25 | -3.16 ± 0.17 |
| CGCCAGCAAUAUUACGAAAC | -4.57 ± 0.36 | -1.78 ± 0.2 |
| CGCCAGCAAUAUUACGAAGG | -1.36 ± 0.11 | -1.9 ± 0.16 |
| CGCCAGCAAUAUUACGAAGU | -3.65 ± 0.16 | -2.13 ± 0.11 |
| CGCCAGCAAUAUUACGAGGA | -3.07 ± 0.19 | -2.41 ± 0.22 |
| CGCCAGCAAUAUUACGAGUA | -2.79 ± 0.18 | -1.52 ± 0.18 |
| CGCCAGCAAUAUUACGAUAA | -3.9 ± 0.46 | -2.78 ± 0.35 |
| CGCCAGCAAUAUUACGAUGG | -3.09 ± 0.15 | -2.72 ± 0.23 |
| CGCCAGCAAUAUUACGAUUC | -4.81 ± 0.46 | -3.22 ± 0.35 |
| CGCCAGCAAUAUUACGAUUG | -0.454 ± 0.06 | 0.047 ± 0.083 |
| CGCCAGCAAUAUUACGCACU | -2.23 ± 0.14 | -1.47 ± 0.14 |
| CGCCAGCAAUAUUACGCCGG | -3.13 ± 0.2 | -3.21 ± 0.35 |
| CGCCAGCAAUAUUACGCGGU | -3.04 ± 0.13 | -3.3 ± 0.22 |
| CGCCAGCAAUAUUACGCGUA | -2.72 ± 0.18 | -2.31 ± 0.18 |
| CGCCAGCAAUAUUACGCGUU | -2.03 ± 0.12 | -2.31 ± 0.19 |
| CGCCAGCAAUAUUACGCUAA | -2.34 ± 0.15 | -1.29 ± 0.14 |
| CGCCAGCAAUAUUACGCUGA | -3.51 ± 0.24 | -2.24 ± 0.28 |
| CGCCAGCAAUAUUACGGCCC | -2.2 ± 0.12 | -0.207 ± 0.25 |
| CGCCAGCAAUAUUACGGGUA | -0.998 ± 0.064 | -0.377 ± 0.069 |
| CGCCAGCAAUAUUACGGGUC | -2.81 ± 0.14 | -2.6 ± 0.17 |
| CGCCAGCAAUAUUACGGGUG | -4.13 ± 0.14 | -2.58 ± 0.12 |
| CGCCAGCAAUAUUACGGUCA | -0.14 ± 0.066 | 0.542 ± 0.092 |
| CGCCAGCAAUAUUACGUAAC | -3.91 ± 0.24 | -2.96 ± 0.28 |

| Sequence | self-splicing fitness (ln) (30 °C) | self-splicing fitness (ln) (37 °C) |
| --- | --- | --- |
| CGCCAGCAAUAUUACGUAGU | -2.67 ± 0.1 | -1.18 ± 0.11 |
| CGCCAGCAAUAUUACGUCCG | -0.462 ± 0.1 | -0.546 ± 0.12 |
| CGCCAGCAAUAUUACGUUAA | -3.31 ± 0.22 | -2.57 ± 0.17 |
| CGCCAGCAAUAUUACGUUAU | -3.32 ± 0.16 | -2.22 ± 0.18 |
| CGCCAGCAAUAUUACGUUGC | -3.95 ± 0.29 | -2.45 ± 0.22 |
| CGCCAGCAAUAUUACGUUUC | -3.41 ± 0.12 | -2.42 ± 0.24 |
| CGCGAGCAAUAUUACGAAAG | -2.75 ± 0.26 | -1.65 ± 0.23 |
| CGCGAGCAAUAUUACGAACA | -3.27 ± 0.45 | -1.19 ± 0.23 |
| CGCGAGCAAUAUUACGACAC | -3.42 ± 0.49 | -1.36 ± 0.41 |
| CGCGAGCAAUAUUACGAUAC | -3.81 ± 0.3 | -2.56 ± 0.28 |
| CGCGAGCAAUAUUACGAUGG | -1.66 ± 0.12 | -1.2 ± 0.14 |
| CGCGAGCAAUAUUACGAUGU | -3.79 ± 0.23 | -2.74 ± 0.22 |
| CGCGAGCAAUAUUACGCAUG | -2.48 ± 0.2 | -2.14 ± 0.16 |
| CGCGAGCAAUAUUACGCCUA | – | -2.42 ± 0.45 |
| CGCGAGCAAUAUUACGCCUG | -2.95 ± 0.34 | -1.99 ± 0.26 |
| CGCGAGCAAUAUUACGCGAU | -3.96 ± 0.24 | -3.09 ± 0.27 |
| CGCGAGCAAUAUUACGCGGU | -3.56 ± 0.3 | -2.79 ± 0.18 |
| CGCGAGCAAUAUUACGCUAU | -3.44 ± 0.34 | -2.2 ± 0.23 |
| CGCGAGCAAUAUUACGCUUA | -2.27 ± 0.23 | -1.97 ± 0.24 |
| CGCGAGCAAUAUUACGGCAC | – | -1.87 ± 0.41 |
| CGCGAGCAAUAUUACGGUAG | -1.19 ± 0.12 | -0.901 ± 0.13 |
| CGCGAGCAAUAUUACGGUGC | – | -2.47 ± 0.5 |
| CGCGAGCAAUAUUACGGUGU | -3.91 ± 0.17 | -2.34 ± 0.15 |
| CGCGAGCAAUAUUACGUCCU | – | -1.69 ± 0.48 |
